This is an account of results in paper doi:10.1101/2021.08.12.456111.

For test [1], the target named is FimV_(SoHubP), C-terminal FimV domain of S. oneidensis HubP (S. oneidensis). In words: BLI.
Test [2] has the same target. Put plainly: interferometric scattering mass spectrometry.

B1: MBP-GGDEF_(SoPdeB), GGDEF domain of S. oneidensis PdeB, wild type (domain or fragment)
chain: RSLAVCYLDLEQFKLINDSCGHTAGDRMLAMVARAIQSCLGPQELLARIGGDEFGLVICDRTALAVAQLLKQIIAQVSLQVLHDKNCNYKVGLSIGVAFGRAPYINAQELLKDADIACIAAKAKGTNQIHIYDD
As a reminder, the Kd is the free concentration of one partner at which half of the binding sites on the other are occupied at equilibrium, for simple one-to-one binding. Consider B1, for which the dissociation constant Kd in test [1] stood at 200 nM. The stoichiometry N (GGDEF per FimV (2:2 complex)) in test [2] is 1.

B2: SoGGDEF_(PdeB) K577S (domain or fragment)
chain: RSLAVCYLDLEQFKLINDSCGHTAGDRMLAMVARAIQSCLGPQELLARIGGDEFGLVICDRTALAVAQLLKQIIAQVSLQVLHDKNCNYKVGLSIGVAFGRAPYINAQELLKDADIACIAAKASGTNQIHIYDD
In test [1], B2 came in with a fold increase of KD against wild type of 10 fold.

B3: SoGGDEF_(PdeB) K575S (domain or fragment)
chain: RSLAVCYLDLEQFKLINDSCGHTAGDRMLAMVARAIQSCLGPQELLARIGGDEFGLVICDRTALAVAQLLKQIIAQVSLQVLHDKNCNYKVGLSIGVAFGRAPYINAQELLKDADIACIAASAKGTNQIHIYDD
As for B3, the fold increase of KD against wild type in test [1] turned out to be 100 fold.
